Measured values published in patent US20220323598A1 (NATIONAL UNIVERSITY CORPORATION TOKAI NATIONAL HIGHER …, published 2022).

Experiments:
[1] = target: T1, human ROR1 protein (GenBank accession No. NP_005003.2) (human, UniProt Q01973 30-937); test: flow cytometry on NCI-H358 cells, relative affinity
T1 construct: whole, on cells; also called hROR1; endogenous human ROR1
Description: To inspect response of the antibodies obtained as described above to an endogenous human ROR1, response to an ROR1 high expressing cell NCI-H358 (ATCC accession No. CRL-5807) line was observed as below. The antibodies were purified from the culture supernatant of each hybridoma clone by a general affinity purification method using Protein A-Sepharose, respectively. The obtained purified antibodies were analyzed for the average fluorescence intensity of flow cytometry under the same condition (the same number of NCI-H358 (1×10⁵), the same concentration of respective purified antibodies, and the same concentration of secondary (detected) antibodies). Further, data was acquired also for the average fluorescence intensity that depends on the antibody concentration, the detection limit at a low concentration was analyzed, and thereby relative affinity was evaluated. FIG. 2 to FIG. 4 illustrate the results in a form of graphs. The horizontal axis of each graph represents the used antibody concentration (ng/mL), and the vertical axis represents the average fluorescence intensity (MFI) in flow cytometry. FIG. 2A is a diagram illustrating the response of anti-human ROR1 antibodies to ROR1 expressing cells of acquired monoclonal antibodies (2 AM series and 2AC series). […]

[2] = target: T1, human ROR1 protein (GenBank accession …); test: flow cytometry, Alexa Fluor 488 labeled antibody at 1 µg/ml on ROR1 high (NCI-H1975, PC-9) and ROR1 low (A427, NCI-H460) expressing cell lines
Source text: To inspect response of antibodies obtained as described above to an endogenous human ROR1, the response to the ROR1 high expressing cell line (NCI-H1975, PC-9) and the ROR1 low expressing cell line (A427, NCI-H460) was observed as follows. Note that NCI-H1975 (ATCC accession No. CRL-5908), A427 (ATCC accession No. HTB-53), and NCI-H460 (ATCC accession No. HTB-177) were purchased from American Type Culture Collection. The PC-9 cell line (RCB 4455) was obtained from RIKEN cell bank. Various cell lines were seeded on 6-well dishes to have 2×10⁵/well, cultured at 37 degrees Celsius for 24 hours, and collected after PBS washing. After chimerized antibodies labeled by using Alexa Fluor (registered trademark) 488 Antibody Labeling Kit (Thermo Fisher Scientific; A20181) were diluted to 1 μg/ml and reacted on ice for one hour, the resultant was washed with a PBS, and the reaction intensity was analyzed by flow cytometry. […] FIG. 6 illustrates graphs indicating the response of chimerized antibodies to the ROR1 high expressing cell line and the ROR1 low expressing cell line.

T1 sequence (Q01973 30-937): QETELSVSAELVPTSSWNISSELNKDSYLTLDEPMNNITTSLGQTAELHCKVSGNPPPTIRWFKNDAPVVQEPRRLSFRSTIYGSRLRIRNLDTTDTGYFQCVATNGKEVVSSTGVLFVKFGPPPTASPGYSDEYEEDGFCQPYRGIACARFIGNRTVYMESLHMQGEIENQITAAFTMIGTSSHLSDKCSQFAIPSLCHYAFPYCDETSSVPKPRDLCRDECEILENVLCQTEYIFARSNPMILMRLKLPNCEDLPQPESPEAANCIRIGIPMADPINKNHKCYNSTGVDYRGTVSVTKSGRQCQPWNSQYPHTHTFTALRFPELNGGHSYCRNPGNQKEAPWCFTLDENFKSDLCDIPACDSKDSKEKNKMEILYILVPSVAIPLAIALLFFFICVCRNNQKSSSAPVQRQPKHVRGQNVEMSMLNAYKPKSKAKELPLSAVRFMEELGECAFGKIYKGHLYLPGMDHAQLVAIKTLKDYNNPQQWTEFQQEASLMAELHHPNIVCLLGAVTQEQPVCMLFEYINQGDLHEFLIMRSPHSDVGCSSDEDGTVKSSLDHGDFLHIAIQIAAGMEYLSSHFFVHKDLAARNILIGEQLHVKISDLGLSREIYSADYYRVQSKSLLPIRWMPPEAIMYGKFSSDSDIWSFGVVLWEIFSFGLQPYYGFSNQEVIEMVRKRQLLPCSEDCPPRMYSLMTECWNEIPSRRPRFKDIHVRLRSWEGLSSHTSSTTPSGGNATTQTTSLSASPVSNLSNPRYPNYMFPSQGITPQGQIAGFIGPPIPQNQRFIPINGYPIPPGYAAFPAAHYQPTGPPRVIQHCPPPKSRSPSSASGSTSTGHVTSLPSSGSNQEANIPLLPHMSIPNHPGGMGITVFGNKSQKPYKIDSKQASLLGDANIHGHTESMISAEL

binding result [1] | binding result [2] | Binder
binds |  | 6AM_120-2 (antibody, mouse IgG1, V domains shown, VH was cloned with a mouse IgG1 CH1 primer and VL with a kappa constant region primer) VH: EIQLQQSGAELVKPGASVKISCKASGYSFTGYNMNWVKQSHGKSLEWIGNINPYYGNTSYNQKFKGKATLTVDKSSSTAYMQLNSLTSEDSAVYYCAREGFEYFDYWGQGTTLTVSS VL: DIQMTQSPASLSASVGETVTITCRASENIYSYLAWYQQKQGKSPQLLVYNVKTLAEGVPSRFSGSGSGTQFSLKINSLQPEDFGSYYCQHHYGIPYTFGSGTKLEIK
 | binds | chimeric antibody M3 (antibody, human IgG1, V domains shown, Mouse VH and VL of 6AM_120-2 in a vector carrying the human IgG1 constant region; also called chimerized antibody obtained from clone 6 AM_120-2) VH: EIQLQQSGAELVKPGASVKISCKASGYSFTGYNMNWVKQSHGKSLEWIGNINPYYGNTSYNQKFKGKATLTVDKSSSTAYMQLNSLTSEDSAVYYCAREGFEYFDYWGQGTTLTVSS VL: DIQMTQSPASLSASVGETVTITCRASENIYSYLAWYQQKQGKSPQLLVYNVKTLAEGVPSRFSGSGSGTQFSLKINSLQPEDFGSYYCQHHYGIPYTFGSGTKLEIK
binds |  | 2DC_5-2 (antibody, mouse IgG1, V domains shown, VH was cloned with a mouse IgG1 CH1 primer and VL with a kappa constant region primer; also called clone 2DC_5-2) VH: EVKLVESGGGLVKPGGSLKLSCAASGFTFSSYAMSWVRQTPEKRLEWVAAINTKGGSTYYPDTVKDRFTISRDNAKNILYLQMSSLRSEDTALYYCARHEPVYDYAMDYWGQGTSVTVSS VL: DIKMTQSPSSMYASLGERVTITCKASQDINSYLSWFQQKPGKSPKTLIYRANRLVDGVPSRFSGSGSGQDYSLTISSLECGDMGIYYCLQYDEFPYTFGGGTKLEIK
 | binds | chimeric antibody M1 (antibody, human IgG1, V domains shown, Mouse VH and VL of 2DC_5-2 in a vector carrying the human IgG1 constant region; also called chimerized antibody obtained from clone 2DC_5-2) VH: EVKLVESGGGLVKPGGSLKLSCAASGFTFSSYAMSWVRQTPEKRLEWVAAINTKGGSTYYPDTVKDRFTISRDNAKNILYLQMSSLRSEDTALYYCARHEPVYDYAMDYWGQGTSVTVSS VL: DIKMTQSPSSMYASLGERVTITCKASQDINSYLSWFQQKPGKSPKTLIYRANRLVDGVPSRFSGSGSGQDYSLTISSLECGDMGIYYCLQYDEFPYTFGGGTKLEIK
